Assay results reported in US12618835B2, “Multiplex microelectrode array for detection of proteases as biomarkers” (Kansas State University Research Foundation, priority 2021, dated 2026).
Where “and” joins values, the source holds several entries; their conditions need not be identical. Equal values may be shown once. Entries after “also recorded” stand apart in the source; their conditions may differ. Where no end group is shown, it is not given here. [ ]: non-standard residue; d: D form. The star is where a group is joined. aminomethylferrocene = [Fe+2].c1cc[c-](CN*)c1.c1cc[cH-]c1; Ava = NCCCCC(=O)O

Tests used:
cathepsin B [1] = biological target: T1, cathepsin B (Homo sapiens, UniProt P07858); assay: Screening of peptide-Fc substrates for cathepsin B (electrochemical measurements, fluorogenic assays, HPLC-MS); assay type: biochemical; details: for proteolysis rate by cathepsin B compared to other candidates: library of nine peptide-Fc substrates
Description: A library of nine peptide substrates was examined initially for proteolysis using cathepsin B (Table S1). […] The order and amino acid sequence of the peptide substrates were designed according to the literature reported sequences with minor modifications. Among the nine peptides, three most reactive peptide substrates, i.e., H-3, H-15, and H-16 (Table 1), were selected for our studies on cathepsin B activity profiling. The peptides were designed based on literature reports and synthesized using a solid-phase microwave peptide synthesizer detailed in the Supporting Information below. For example, peptide H-15, a representative peptide, was made by the coupling of H-Ala-2-chlorotrityl resin with various N-fluorenylmethyloxycarbonyl-amino acids (N-Fmoc-amino acids) sequentially, condensing with the linker N-Boc-NH—(CH2)4—CO2H, cleavage of the peptide from the resin, re-protection of the amino group of linker, bonding with (aminomethyl)ferrocene, and removal of the protecting group.
We have designed and synthesized nine different peptide-Fc substrates containing 6-8 amino acids (listed in Table S1 below) for proteolysis by cathepsin B based on the specific recognition reported in literature and tested the cathepsin B activities on these peptide-Fc substrates by the combination of electrochemical measurements (using Au disk electrodes and VACNF nanoelectrode arrays), fluorogenic assays and HPLC-MS analysis.

cathepsin B [2] = biological target: T1, cathepsin B; assay: Electrochemical (AC voltammetry) proteolysis of peptide-Fc substrates on 3x3 Au MEA, Example 1; assay type: biochemical; design: purchased R&D Systems Inc. (Minneapolis, MN); details: for 1/τ AVG: average of 3 channels per peptide, 50 mM MES buffer pH=5.0, FIG. 8; for average values of 1/τ: three peptides on one MEA, 3 channels each, 50 mM MES pH=5.0
Description: N-Fluorenylmethyloxycarbonyl (Fmoc) protected amino acids, amino acid attached 2-chlorotrityl resins, 1-[bis(dimethylamino)methylene]-1H-1,2,3-triazolo[4,5-b]pyridinium 3-oxide hexafluorophosphate (HATU), and 2-(1H-benzotriazol-1-yl)-1,1,3,3-tetramethyluronium hexafluorophosphate (HBTU) were purchased from Chem-Impex International, Inc. (Wood Dale, IL) and AAPPTEC LLC (Louisville, KY). Potassium hexacyanoferrate (II) trihydrate, potassium nitrate, 1-ethyl-3-(3-dimethylaminopropyl)carbodiimide (EDC), N-hydroxysulfosuccinimide (Sulfo-NHS), 6-mercapto-1-hexanol, and 6-mercapto-1-hexanoic acid were obtained from Sigma-Aldrich (St. Louis, MO). Dithiothreitol (DTT), sodium phosphate dibasic heptahydrate (Na2HPO4·7H2O), sodium phosphate monobasic (NaH2PO4) and 2-(4-morpholino)ethanesulfonic acid ([…]) were purchased from Fisher Scientific (Hampton, NH). […] Cathepsin B solutions were activated by incubation in 25 mM MES buffer (pH=5.0) containing 5 mM DTT for 15 min before proteolysis experiments.
Electrochemical measurements were performed using an Ivium n-Stat Potentiostat (Eindhoven, The Netherlands) outfitted with five dual channel modules, allowing up to ten independent working electrodes to function simultaneously with a common reference and counter electrodes. […] In this study, the nine leads from the potentiostat (FIG. 9b) were interfaced with a breakout box, which was then connected to a custom-built electrochemical cell via a ribbon cable (FIG. 9c). The sensor chip consists of nine lithographically patterned Au working microelectrodes placed in the custom-built electrochemical cell (FIG. 9d) and electrical contact was made via pogo pins. All measurements were performed using a common mercury/mercurous sulfate reference electrode (Hg/Hg2SO4, MSE) filled with a saturated solution of K2SO4 (CH Instruments, Austin, TX) and a common Pt wire counter electrode.
Prior to use, the MEAs were sonicated in acetone for 1 minute, subsequently rinsed with methanol and isopropanol for 15 s and then dried by blowing with nitrogen. Next, the electrodes were placed in the experimental cell and electrochemically cleaned by cycling from −0.60 to 0.70 V vs. MSE in 0.10 M phosphate buffer (pH=7.4). For the experiments using an MEA modified with the same peptide-Fc substrate (i.e., H-15) on all nine microelectrodes, the whole chip was incubated in a mixture of 1.0 mM 6-mercapto-1-hexanol and 0.2 mM 6-mercapto-1-hexanoic acid in deionized water for 40 min to form a self-assembled monolayer (SAM). This step passivated the entire Au microelectrode surface while leaving adequate spacing between the exposed carboxyl functionalities. Next, the electrodes were incubated in a solution containing 2.0 mM peptide-Fc substrate (i.e., H-3, H-15, or H-16), 0.20 g/l EDC and 0.20 g/l sulfo-NHS for 2 hours at room temperature so that the peptides were covalently attached to the carboxyl groups of the SAM through the formation of amide bonds. The low ratio of carboxyl to hydroxyl groups at the SAM surface ensured a large separation between the peptide-Fc molecules which was important to reduce the steric hindrance during subsequent proteolysis measurements. Finally, the electrodes were rinsed with deionized water to remove any non-bound peptide-Fc substrate that may be physiosorbed on the surface. For multiplex experiments, the chip was masked with a ˜1.2 mm thick polydimethylsiloxane (PDMS) film punched with a 3×3 array of ˜0.7 mm diameter holes that were aligned on top of each Au microelectrodes. About 100 μl mixed thiol solution (6-mercapto-1-hexanol and 6-mercapto-1-hexanoic acid) as described above was added on the chip surface to fill all nine PDMS holes and was incubated for 40 min. Then, the microelectrodes and wells were rinsed and dried on a hot plate at 35° C. Finally, 0.50 μl of the EDC/sulfo-NHS/peptide-Fc (H-3, H-15, or H-16) reaction mixture was added to each well using a nanoinjector mounted on a x-y-z-micromanipulator and incubated for 2 h. […]

Substance | proteolysis rate by cathepsin B compared to other candidates (cathepsin B [1]) | 1/τ AVG (cathepsin B [2]; 6.0 nM cathepsin B) [s⁻¹] | average values of 1/τ (cathepsin B [2]; 6.0 nM cathepsin B) | proteolytic activity by cathepsin B among synthesized peptides (cathepsin B [1]; selected from about 30 synthesized peptides) | average value of 1/τ (cathepsin B [2]; CH 1-6, 6.0 nM cathepsin B, MES buffer pH=5.0) | fitted value of 1/τ (cathepsin B [2]; CH 4, 6.0 nM cathepsin B, 25 mM MES buffer pH=5.0) [s⁻¹] | 1/τ Avg (cathepsin B [2]; average of channels 1-6, H-15 modified Au MEA, 6.0 nM cathepsin B, MES buffer pH=5.0) [s⁻¹] | 1/τ (cathepsin B [2]; individual channels 1-6 of H-15 modified Au MEA, 6.0 nM cathepsin B, MES buffer pH=5.0, FIG. 7)
H2N-(CH2)4-CO-Pro-Leu-Ala-Gly-Val-Ala-NH-CH2-Fc ([Ava]PLAGVA-aminomethylferrocene) [Peptide H-16] | most reactive; also recorded: higher proteolysis rates | 8.90 | (8.9±1.1)×10^−4 s^−1 |  |  |  |  | 
H2N-(CH2)4-CO-Pro-Leu-Ala-Phe-Val-Ala-NH-CH2-Fc ([Ava]PLAFVA-aminomethylferrocene) [Peptide H-15] | most reactive; also recorded: higher proteolysis rates | 6.79 | (6.8±1.8)×10^−4 s^−1 | highest proteolytic activity | (6.63±0.87)×10^−4 s^−1 | 0.000684 | 0.000663 | 0.000684 s⁻¹ and 0.000779 s⁻¹ and 0.000645 s⁻¹ and 0.00055 s⁻¹ and 0.000734 s⁻¹ and 0.000588 s⁻¹
H2N-(CH2)4-CO-Pro-Leu-Arg-Phe-Gly-Ala-NH-CH2-Fc ([Ava]PLRFGA-aminomethylferrocene) [Peptide H-3] | most reactive; also recorded: higher proteolysis rates | 7.36 | (7.4±0.9)×10^−4 s^−1 |  |  |  |  | 
